Three molecules from patent US20050124539A1 (Takeda / Millennium, published 2005) can be followed below.

No end group written: not given here. *: point of attachment. 125I = [125I]*

The target in test [1] is T1, Human GPR7 (human, UniProt P48145 1-328).
T1 sequence: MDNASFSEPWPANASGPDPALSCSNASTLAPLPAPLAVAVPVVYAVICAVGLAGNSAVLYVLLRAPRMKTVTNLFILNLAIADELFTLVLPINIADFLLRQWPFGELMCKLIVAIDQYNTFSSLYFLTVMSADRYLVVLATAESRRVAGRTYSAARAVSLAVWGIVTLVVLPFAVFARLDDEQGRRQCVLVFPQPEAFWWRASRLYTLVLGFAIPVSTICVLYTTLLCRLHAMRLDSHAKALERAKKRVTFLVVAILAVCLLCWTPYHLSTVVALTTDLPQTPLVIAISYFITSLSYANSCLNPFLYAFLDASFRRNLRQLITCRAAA
Kind of test: cell-based or functional assay.

Test [2] has as its target T1, Human GPR7. Kind of test: cell-based or functional assay. The source holds these as a separate data set.
The target of test [3] is T2, TGR26, rat-derived G protein-coupled receptor protein (rat, UniProt Q56UD9 1-329).
T2 construct: Expressed in CHO dhfr- cells from pAK-rGPR7; also called rat TGR26; TGR26 receptor
T2 sequence: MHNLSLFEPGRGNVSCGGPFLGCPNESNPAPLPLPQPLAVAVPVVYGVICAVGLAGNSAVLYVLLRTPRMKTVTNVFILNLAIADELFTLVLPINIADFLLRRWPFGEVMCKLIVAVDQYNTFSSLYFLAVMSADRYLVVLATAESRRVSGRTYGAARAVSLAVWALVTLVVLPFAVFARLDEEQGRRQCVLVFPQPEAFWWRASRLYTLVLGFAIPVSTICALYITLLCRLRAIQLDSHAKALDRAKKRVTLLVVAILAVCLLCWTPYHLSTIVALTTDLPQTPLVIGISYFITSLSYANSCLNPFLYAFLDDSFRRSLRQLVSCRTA
Kind of test: competition with [125I-Tyr10]-hGPR8L(1-23), membrane fraction of TGR26 expressing CHO cells, 3 µg/ml. On the procedure: (§1) Cell membrane fraction prepared from TGR26 expressing cells was diluted to various concentration with assay buffer (25 mM Tris-HCl, 5 mM EDTA, 0.05% CHAPS (3-[(3-Cholamidopropyl) Dimethyl-Ammonio]-1-Propanesulfonate), 0.1% BSA, 0.5 mM PMSF, 1 μg/ml Pepstatin, 20 μg/ml Leupeptin, 4 μg/ml E-64, pH7.4), and 200 μl each of the diluent was dispensed into polypropilene test tube (Falcon 2053). In order to determine an amount of maximum binding, 2 μl of DMSO and 2 μl of 7 nM [¹²⁵-Tyr¹⁰]-hGPR8L(1-23) were added to the membrane fraction solution. Further, in order to determine a non-specific binding, 2 μl of 100 μM hGPR8L(1-23)/DMSO solution and 2 μl of 7 nM [¹²⁵I]-Tyr¹⁰]-hGPR8L(1-23) were added to the membrane fraction solution. The reaction was done at 25° C. for 75 minutes, and the reaction mixture was filtered by suction filtration using Whatman glassfilter (GF-F) treated with polyethyleneimine. In addition, the filter was washed twice with 1.5 ml of washing buffer (25 mM Tris-HCl, 5 mM EDTA, 0.05% CHAPS, 0.1% BSA, pH7.4). After filtration, a radioactivity remaining on the filter was counted using γ-counter, and an amount of specific binding was estimated by subtracting an amount of non-specific binding from an amount of maximum binding. […]

Test [4] has as its target T1, Human GPR7. The experiment in a line: competition with [Phe2, 125I-Tyr10]-Human GPR8 ligand (1-20), membrane fraction of GPR7 expressing CHO cells, 15 µg/ml. On the procedure: In order to determine an amount of maximum binding, 2 μl of DMSO and 2 μl of 7 nM [Phe², ¹²⁵I-Tyr¹⁰]-Human GPR8 ligand (1-20) were added to the membrane fraction solution. Further, in order to determine a non-specific binding, 2 μl of 100 μM hGPR8L(1-23)/DMSO solution and 2 μl of 7 nM [Phe², ¹²⁵I-Tyr¹⁰]-Human GPR8 ligand (1-20) were added to the membrane fraction solution. The reaction was done at 25° C. for 75 minutes, and the reaction mixture was filtered by suction filtration using Whatman glassfilter (GF-F) treated with polyethyleneimine. After filtration, a radioactivity remaining on the filter was counted using γ-counter, and an amount of specific binding was estimated by subtracting an amount of non-specific binding from an amount of maximum binding. When the concentration of membrane fraction was changed, a specific binding of [Phe², ¹²⁵I-Tyr¹⁰]-Human GPR8 ligand (1-20) was perceived depending on the concentration of membrane fraction.
The inhibition of binding for GPR7 receptor or GPR8 receptor in the test sample (the inhibition rate (%)) is represented by the ratio of the values obtained by subtracting a radioactivity (X) remaining on the filter in the case where the test sample and of [Phe², ¹²⁵I-Tyr¹⁰]-Human GPR8 ligand (1-20) were added from the maximum binding (TB) to the specific binding (SB) ((TB−X)/SB×100(%)).
(§2) The IC₅₀ values were 0.13 nM and 0.039 nM, respectively. […]

Test [5] concerns the target T3, Human GPR8 receptor protein (human, UniProt P48146 1-333).
T3 construct: Full-length receptor expressed in CHO dhfr- cells (CHO/GPR8)
Kind of test: competition with [125I-Tyr10]-hGPR8L(1-23), membrane fraction of GPR8 expressing CHO cells. The protocol:
(§3) Cell membrane fraction prepared from Human GPR8 expressing cells was diluted to various concentration with assay buffer (25 mM Tris-HCl, 5 mM EDTA, 0.05% CHAPS (3-[(3-Cholamidopropyl) Dimethyl-Ammonio]-1-Propanesulfonate), 0.1% BSA, 0.25 mM PMSF, 1 μg/ml Pepstatin, 20 μg/ml Leupeptin, pH7.4), and 200 μl each of the diluent was dispensed into polypropilene test tube (Falcon 2053). In order to determine an amount of maximum binding (TB), […] of DMSO and 2 μl of 7 nM [¹²⁵I-Tyr²]-hGPR8L(1-23) or [¹²⁵I-Tyr¹⁰]-hGPR8L(1-23) were added to the membrane fraction solution. Further, in order to determine a non-specific binding (NSB), 2 μt of 100 μM hGPR8L(1-23)/DMSO solution and 2 μl of 7 nM [¹²⁵I]-Tyr²]-hGPR8L(1-23) or [¹²⁵I-Tyr¹⁰]-hGPR8L(1-23) were added to the membrane fraction solution. The reaction was done at 25° C. for 60 minutes, and the reaction mixture was filtered by suction filtration using Whatman glassfilter (GF-F) treated with polyethyleneimine. After filtration, a radioactivity remaining on the filter was counted using γ-counter, and an amount of specific binding (SB) was estimated by subtracting an amount of non-specific binding from an amount of maximum binding. Since the specific binding in the case where [¹²⁵I-Tyr¹⁰]-hGPR8L(1-23) was used, was twice as much as that in the case where [¹²⁵1-Tyr²]-hGPR8L(1-23) was used, in practice, [¹²⁵I-Tyr¹⁰]-hGPR8L(1-23) was used in the assay. When the concentration of membrane fraction was changed, a specific binding of [¹²⁵I-Tyr¹⁰]-hGPR8L(1-23) was perceived depending on the concentration of membrane fraction.
A receptor binding activity of human- and porcine-homologue derivatives of GPR8 ligand peptide, wherein the synthesis method has been described in the specification, was measured using a membrane fraction of GPR8 expressing CHO cells and [¹²⁵-Tyr¹⁰]-hGPR8L(1-23) by the method described in Reference Example 43.

Test [6] addresses T1, Human GPR7. The experiment in a line: radioligand filter binding, membrane fraction of GPR7 expressing CHO cells. On the procedure: (§4) Cell membrane fractions prepared from GPR7 expressing CHO cells and GPR8 expressing CHO cells, were diluted to various concentration with assay buffer (25 mM Tris-HCl, 5 mM EDTA, 0.05% CHAPS, 0.1% BSA, 0.5 mM PMSF, 1 μg/ml Pepstatin, 4 μg/ml E-64, 20 μg/ml Leupeptin, pH7.4), and 200 μl each of the diluent was dispensed into polypropilene test tube (Falcon 2053). In order to determine an amount of maximum binding, 2 μl of DMSO and 2 μl of 7 nM [Phe², ¹²⁵I-Tyr¹⁰]-Human GPR8 ligand (1-20) were added to the membrane fraction solution. Further, in order to determine a non-specific binding, 2 μl of 100 μM hGPR8L(1-23)/DMSO solution and 2 μl of 7 nM [Phe², ¹²⁵I-Tyr¹⁰]-Human GPR8 ligand (1-20) were added to the membrane fraction solution. The reaction was done at 25° C. for 75 minutes, and the reaction mixture was filtered by suction filtration using Whatman glassfilter (GF-F) treated with polyethyleneimine. After filtration, a radioactivity remaining on the filter was counted using γ-counter, and an amount of specific binding was estimated by subtracting an amount of non-specific binding from an amount of maximum binding. When the concentration of membrane fraction was changed, a specific binding of [Phe², ¹²⁵I-Tyr¹⁰]-Human GPR8 ligand (1-20) was perceived depending on the concentration of membrane fraction.
as §2

Test [7] has as its target T3, Human GPR8 receptor protein. The experiment in a line: radioligand filter binding, membrane fraction of GPR8 expressing CHO cells. On the procedure:
as §4, §2

The target is the same in test [8]. The experiment in a line: radioligand filter binding, membrane fraction of Human GPR8 expressing CHO cells. On the procedure: Using [¹²⁵I]-labeled hGPR8L(1-23) prepared as described in Reference Example 42 and a cell membrane fraction prepared from Human GPR8 expressing cells by the similar manner as described in Reference Example 6, a receptor binding assay was carried out as follows.
as §3, with “The reaction was done at 25° C. for 60 minutes, and the reaction mixture was filtered by suction filtration using Whatman glassfilter (GF-F) treated with polyethyleneimine.” left out, “Since the specific binding in the case where [¹²⁵I-Tyr¹⁰]-hGPR8L(1-23) was used, was twice as much as that in the case where [¹²⁵1-Tyr²]-hGPR8L(1-23) was used, in practice, [¹²⁵I-Tyr¹⁰]-hGPR8L(1-23) was used in the assay. When the concentration of membrane fraction was changed, a specific binding of [¹²⁵I-Tyr¹⁰]-hGPR8L(1-23) was perceived depending on the concentration of membrane fraction.” left out

In test [9] the target is T2, TGR26, rat-derived G protein-coupled …. The experiment in a line: radioligand filter binding, membrane fraction of TGR26 expressing CHO cells. On the procedure: as §1
In test [10] the target is T1, Human GPR7. The experiment in a line: radioligand filter binding, membrane fraction of Human GPR7 expressing CHO cells.

T3 sequence (P48146 whole entry): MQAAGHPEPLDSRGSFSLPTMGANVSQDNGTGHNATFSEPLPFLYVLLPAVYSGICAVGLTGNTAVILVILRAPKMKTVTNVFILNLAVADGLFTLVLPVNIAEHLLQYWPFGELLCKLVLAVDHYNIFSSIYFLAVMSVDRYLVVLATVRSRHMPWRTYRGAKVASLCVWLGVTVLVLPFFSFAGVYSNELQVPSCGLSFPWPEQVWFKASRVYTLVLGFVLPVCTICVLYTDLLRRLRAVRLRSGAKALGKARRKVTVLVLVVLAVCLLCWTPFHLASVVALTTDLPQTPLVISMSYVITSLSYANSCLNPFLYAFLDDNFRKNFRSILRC

B1: human homologue of GPR8 ligand peptide consisting of 23 residues (peptide)
peptide: WYKHVASPRYHTVGRAAGLLMGL
notes: also called hGPR8L(1-23); Human GPR8 ligand (1-23)
With B1, the “inhibition of intracellular cAMP production (IC50)” value in test [1] was found to be 0.025 nM. In addition, the “Promoting activity to GTPγS binding (EC50 nM)” value in [2] was 0.74 nM. The half-maximal inhibitory concentration (IC50) in [3] was 0.12 nM; in test [4] it was 0.13 nM; in [5], 0.25 nM.

B2: [Phe^2, ^125I-Tyr^10]-Human GPR8 ligand (1-20) (peptide)
peptide: WFKHVASPRY(125I)HTVGRAAGLL
notes: Radioligand made from [Phe2]; also called labeled [Phe^2]; Human GPR8 ligand (1-20)
Take B2: the binding result in [6] and in test [7] was “binds” throughout.

B3: [^125I-Tyr^10]-hGPR8L(1-23) (peptide)
peptide: WYKHVASPRY(125I)HTVGRAAGLLMGL
For B3, the binding result in test [8], in test [9] and in test [10] was “binds” in each case.
